B1: Hematopoietic cell signal transducer (Homo sapiens), Q9UBK5 (parent)
chain: MIHLGHILFLLLLPVAAAQTTPGERSSLPAFYPGTSGSCSGCGSLSLPLLAGLVAADAVASLLIVGAVFLCARPRRSPAQEDGKVYINMPGRG
B2: TYRO protein tyrosine kinase-binding protein (Homo sapiens), O43914 (parent)
chain: MGGLEPCSRLLLLPLLLAVSGLRPVQAQAQSDCSCSTVSPGVLAGIVMGDLVLTVLIALAVYFLGRLVPRGRGAAEAATRKQRITETESPYQELQGQRSDVYSDLNTQRPYYK

Key:
[1] = variants of: B1; conditions: with nkg2d_human KLRK1, P26718
[2] = variants of: B2; conditions: with nkg2c_human KLRC2, P26717
Sequence of nkg2c_human KLRC2, P26717 (P26717 whole entry): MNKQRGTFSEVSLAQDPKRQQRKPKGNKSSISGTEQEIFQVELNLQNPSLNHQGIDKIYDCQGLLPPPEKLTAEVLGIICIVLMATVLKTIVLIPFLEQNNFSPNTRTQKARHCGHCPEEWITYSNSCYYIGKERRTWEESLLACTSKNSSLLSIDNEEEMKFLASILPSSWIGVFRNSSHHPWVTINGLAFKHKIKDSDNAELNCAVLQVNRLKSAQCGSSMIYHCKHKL

[3] = variants of: B2; conditions: with ki2s3_human KIR2DS3, Q14952
Sequence of ki2s3_human KIR2DS3, Q14952 (Q14952 whole entry): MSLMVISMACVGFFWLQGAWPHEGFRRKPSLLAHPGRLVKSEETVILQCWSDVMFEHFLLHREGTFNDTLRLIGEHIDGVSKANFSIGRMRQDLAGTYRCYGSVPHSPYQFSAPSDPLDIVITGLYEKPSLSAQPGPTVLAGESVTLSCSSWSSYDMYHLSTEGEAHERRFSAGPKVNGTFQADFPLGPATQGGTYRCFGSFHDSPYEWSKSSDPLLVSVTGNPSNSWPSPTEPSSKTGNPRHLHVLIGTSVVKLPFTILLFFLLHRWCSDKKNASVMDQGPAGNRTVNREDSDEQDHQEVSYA

Sequence of nkg2d_human KLRK1, P26718 (P26718 whole entry): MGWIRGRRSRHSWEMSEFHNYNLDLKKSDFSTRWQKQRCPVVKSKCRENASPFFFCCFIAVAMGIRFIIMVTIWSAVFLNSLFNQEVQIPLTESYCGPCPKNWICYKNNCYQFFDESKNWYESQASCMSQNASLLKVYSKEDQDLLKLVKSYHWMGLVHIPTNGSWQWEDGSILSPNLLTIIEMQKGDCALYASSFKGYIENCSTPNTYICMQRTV

effect of a mutation on the interaction [1]	effect of a mutation on the interaction [2]	effect of a mutation on the interaction [3]	Variant
decreasing interaction			MIHLGHILFLLLLPVAAAQTTPGERSSLPAFYPGTSGSCSGCGSLSLPLLAGLVAAAAVASLLIVGAVFLCARPRRSPAQEDGKVYINMPGRG
	decreasing interaction	decreasing interaction	T54A
	decreasing interaction	decreasing interaction	A58F

Source: IntAct's records for PubMed 20890284
